Positions count from the first letter of the chain named. Numbers in names are those of the source. Like-named read-outs stand apart in the source and are kept apart here.
Columns and labels:
[1] = molecular target: the molecule itself; assay: SEC-MALS
[2] = molecular target: the molecule itself; assay: fluorescence polarisation
[3] = molecular target: the molecule itself; assay: fluorescence polarisation; remark: listed apart in the source
[4] = molecular target: the molecule itself; assay: fluorescence polarisation; remark: listed apart in the source
[5] = molecular target: the molecule itself; assay: SEC

B1: CARMA1 (8–172) (domain or fragment, human, UniProt Q9BXL7 8-172, looked up)
chain: MDDYMETLKDEEDALWENVECNRHMLSRYINPAKLTPYLRQCKVIDEQDEDEVLNAPMLPSKINRAGRLLDILHTKGQRGYVVFLESLEFYYPELYKLVTGKEPTRRFSTIVVEEGHEGLTHFLMNEVIKLQQQMKAKDLQRCELLARLRQLEDEKKQMTLTRVE
[1]
  stoichiometry N: 3

B2: Bcl10 R36E/E50R/D51R triple mutant (natural protein)
chain: MEPTAPSLTEEDLTEVKKDALENLRVYLAEKIIAEEHFDHLRAKKILSRRRTEEISARTSSRKRAGKLLDYLQENPKGLDTLVESIRREKTQNFLIQKITDEVLKLRNIKLEHLKGLKCSSCEPFPDGATNNLSRSNSDESNFSEKLRASTVMYHPEGESSTTPFFSTNSSLNLPVLEVGRTENTIFSSTTLPRPGDPGAPPLPPDLQLEEEGTCANSSEMFLPLRSRTVSRQ
[2]
  polymerization activity relative to WT Bcl10: ~50%

B3: Alexa 488-labeled Bcl10 (C29A/C57A double mutant), MBP removed by TEV (natural protein, human, UniProt O95999 1-233, looked up)
chain: B2 chain with E36R, R50E, R51D
modifications: Alexa 488 label (site not stated)
[3]
  Kd: 4300 nM
[4]
  Kd: 800 nM

B4: CARMA1 (8–302) (domain or fragment, human, UniProt Q9BXL7 8-302, looked up)
chain: MDDYMETLKDEEDALWENVECNRHMLSRYINPAKLTPYLRQCKVIDEQDEDEVLNAPMLPSKINRAGRLLDILHTKGQRGYVVFLESLEFYYPELYKLVTGKEPTRRFSTIVVEEGHEGLTHFLMNEVIKLQQQMKAKDLQRCELLARLRQLEDEKKQMTLTRVELLTFQERYYKMKEERDSYNDELVKVKDDNYNLAMRYAQLSEEKNMAVMRSRDLQLEIDQLKHRLNKMEEECKLERNQSLKLKNDIENRPKKEQVLELERENEMLKTKNQELQSIIQAGKRSLPDSDKAIL
[5]
  stoichiometry N: > 100

— PMC3929958 (Molecular cell, 2013)
